From patent publication US7807384B2, “Low density lipoprotein binding proteins and their use in diagnosing and treating atherosclerosis” (Boston Heart Foundation, Inc., priority 1996, dated 2010)

Experiments:
[1] = test system: ballooned deendothelialized rabbit aorta; assay: Radiolabeled LDL accumulation in ballooned deendothelialized abdominal aorta after active immunization; assay type: in vivo; details: immunized with RIBI adjuvant; corrected for dosage and percent reendothelialization; 24 hr after 125I-LDL
Method: Immunity was induced in male New Zealand White rabbits (Hazelton Research Products, Denver, Pa.) as follows: A mixture of purified human recombinant LBP-2 or BHF-1 peptide (1 ml; 1 mg) and RIBI adjuvant (RIBI ImmunoChem Research, Inc., Hamilton, Mont.) was injected subcutaneously at 2-5 sites along the dorsal thoracic and abdominal regions of the rabbits. Blood was collected by venipuncture on days 1 (preimmune bleeding), 35, 63, and 91. Booster injections were administered on days 28 (500 μg; SC), 56 (250 μg; SC), and 84 (125 μg; SC).
On day 93, the abdominal aorta of immunized and control rabbits was deendothelialized using a Fogarty number 4 embolectomy catheter (Chang et al., Arteriosclerosis and Thrombosis 12:1088-1098 (1992)). Four weeks after ballooning, rabbits received a bolus injection of ^125I-labeled LDL (1 ml; i.v.). […] Blood samples were centrifuged for 30 min at 2000 rpm ([…]) and total activity present in the serum was determined using a Gamma counter. Total TCA precipitable counts were determined by addition of TCA to the serum to a final concentration of 10% followed by incubation for 10 min at 4° C. Serum samples were then centrifuged (2000 rpm; 30 min; […]) and total activity present in the supernate was determined. TCA precipitable counts were calculated by subtraction: total soluble counts minus counts present in the supernate after TCA precipitation. […]

[2] = Body weight and serum lipids of LBP-immunized apo E knockout mice; assay type: in vivo, mouse; details: P>0.05
Method: (§1) Four week old apo E knockout mice (Jackson Laboratories, Bar Harbor, Me.) were ear tagged, randomly assigned to different cages and weighed. Body weights were determined weekly. Animals were allowed to habituate for 1 week. Normal rodent chow was provided ad libitum and animals were maintained in a 12:12 light:dark cycle. The following four groups of mice were treated with either recombinant LBP proteins (40 μg of recombinant protein/mouse) plus RIBI adjuvant or RIBI adjuvant alone (control group).
Blood samples were analyzed for total cholesterol, HDL cholesterol, and triglyceride concentration with a commercially available total cholesterol and triglycerides assay kits (Sigma; St. Louis Mo.) using an ELISA format. HDL concentration was determined after Apo B containing lipoproteins were precipitated using heparin/MnCl2.
Data were analyzed using T-tests and Wilcoxons.

[3] = test system: apo E knockout mice; assay: Aortic lesion area (Sudan IV staining) in LBP-immunized apo E knockout mice; assay type: in vivo, mouse; details: for Effect of immunization on lesions / lesion area: apo E knockout mice; for Lesion Area % Coverage: apo E mice, 26 weeks of age, control 9.40
Method: (§2) Separate immunization experiments were performed with each of LBP-1, LBP-2, and LBP-J. Immunity was induced by injecting apo E knockout mice with the LBP protein (LBP-1, LBP-2, or LBP-3) together with an RIBI adjuvant (RIBI ImmunoChem Research, Inc., Hamilton, Mont.). Apo E knockout mice (Jackson Laboratories, Bar Harbor, Me.) are hyperlipidemic and thus a model for human atherosclerosis. Apo E knockout mice have high levels of plasma cholesterol and develop naturally-occurring atherosclerotic-like lesions.
as §1
(§3) Apo E knockout mice were sacrificed at 26 weeks of age. The mice were anesthetized with methoxyfluorane and exanguinated via cardiac puncture. A midline thoracotomy was performed, a cannula inserted into the right ventricle and perfusate allowed unrestricted flow via an incision into the right atrium. The mice were perfused with saline, followed by 10% phosphate buffered formalin until fasciculations stopped. At this time, the aorta was exposed and adventitial fat removed in situ. The aorta was then removed from the heart down to the iliac bifurcation and placed in 10% phosphate buffered formalin overnight.
The aorta was stained as follows: after a brief 70% ethanol rinse, it was immersed in a filtered solution of 0.5% (weight/volume) Sudan IV in 35% ethanol/50% acetone with continuous shaking for 10 minutes at room temperature. Unbound dye was removed by incubating the aorta in an 80% ethanol solution with shaking until the background color was clear. The vessel was then rinsed in distilled water, placed in physiological saline and opened longitudinally from the aortic arch down to the iliac bifurcation. The vessel was pinned out and photographed. Photographs were then digitized using an Astra 1200S scanner (UMAX Technologies Inc., Freemont, Calif.) and a commercially available graphics program (Canvas; Deneba Software, Miami Fla.). Total and lesion areas were determined using the signal processing toolbox of MATLAB (The Mathworks Inc., Natick, Mass.). Percent involvement was calculated by dividing lesion area by total area.

[4] = target: T1, LDL (Homo sapiens, UniProt P04114); assay: ACE competition: cold LBP versus radiolabeled LBP binding to LDL; details: fixed cold LDL and radiolabeled LBP, increasing cold recombinant LBP
T1 construct: LDL was prepared from the plasma of normolipemic donors; from tissue; host or cells: blood plasma of normolipemic donors, density ultracentrifugation
T1 sequence (P04114 28-4563): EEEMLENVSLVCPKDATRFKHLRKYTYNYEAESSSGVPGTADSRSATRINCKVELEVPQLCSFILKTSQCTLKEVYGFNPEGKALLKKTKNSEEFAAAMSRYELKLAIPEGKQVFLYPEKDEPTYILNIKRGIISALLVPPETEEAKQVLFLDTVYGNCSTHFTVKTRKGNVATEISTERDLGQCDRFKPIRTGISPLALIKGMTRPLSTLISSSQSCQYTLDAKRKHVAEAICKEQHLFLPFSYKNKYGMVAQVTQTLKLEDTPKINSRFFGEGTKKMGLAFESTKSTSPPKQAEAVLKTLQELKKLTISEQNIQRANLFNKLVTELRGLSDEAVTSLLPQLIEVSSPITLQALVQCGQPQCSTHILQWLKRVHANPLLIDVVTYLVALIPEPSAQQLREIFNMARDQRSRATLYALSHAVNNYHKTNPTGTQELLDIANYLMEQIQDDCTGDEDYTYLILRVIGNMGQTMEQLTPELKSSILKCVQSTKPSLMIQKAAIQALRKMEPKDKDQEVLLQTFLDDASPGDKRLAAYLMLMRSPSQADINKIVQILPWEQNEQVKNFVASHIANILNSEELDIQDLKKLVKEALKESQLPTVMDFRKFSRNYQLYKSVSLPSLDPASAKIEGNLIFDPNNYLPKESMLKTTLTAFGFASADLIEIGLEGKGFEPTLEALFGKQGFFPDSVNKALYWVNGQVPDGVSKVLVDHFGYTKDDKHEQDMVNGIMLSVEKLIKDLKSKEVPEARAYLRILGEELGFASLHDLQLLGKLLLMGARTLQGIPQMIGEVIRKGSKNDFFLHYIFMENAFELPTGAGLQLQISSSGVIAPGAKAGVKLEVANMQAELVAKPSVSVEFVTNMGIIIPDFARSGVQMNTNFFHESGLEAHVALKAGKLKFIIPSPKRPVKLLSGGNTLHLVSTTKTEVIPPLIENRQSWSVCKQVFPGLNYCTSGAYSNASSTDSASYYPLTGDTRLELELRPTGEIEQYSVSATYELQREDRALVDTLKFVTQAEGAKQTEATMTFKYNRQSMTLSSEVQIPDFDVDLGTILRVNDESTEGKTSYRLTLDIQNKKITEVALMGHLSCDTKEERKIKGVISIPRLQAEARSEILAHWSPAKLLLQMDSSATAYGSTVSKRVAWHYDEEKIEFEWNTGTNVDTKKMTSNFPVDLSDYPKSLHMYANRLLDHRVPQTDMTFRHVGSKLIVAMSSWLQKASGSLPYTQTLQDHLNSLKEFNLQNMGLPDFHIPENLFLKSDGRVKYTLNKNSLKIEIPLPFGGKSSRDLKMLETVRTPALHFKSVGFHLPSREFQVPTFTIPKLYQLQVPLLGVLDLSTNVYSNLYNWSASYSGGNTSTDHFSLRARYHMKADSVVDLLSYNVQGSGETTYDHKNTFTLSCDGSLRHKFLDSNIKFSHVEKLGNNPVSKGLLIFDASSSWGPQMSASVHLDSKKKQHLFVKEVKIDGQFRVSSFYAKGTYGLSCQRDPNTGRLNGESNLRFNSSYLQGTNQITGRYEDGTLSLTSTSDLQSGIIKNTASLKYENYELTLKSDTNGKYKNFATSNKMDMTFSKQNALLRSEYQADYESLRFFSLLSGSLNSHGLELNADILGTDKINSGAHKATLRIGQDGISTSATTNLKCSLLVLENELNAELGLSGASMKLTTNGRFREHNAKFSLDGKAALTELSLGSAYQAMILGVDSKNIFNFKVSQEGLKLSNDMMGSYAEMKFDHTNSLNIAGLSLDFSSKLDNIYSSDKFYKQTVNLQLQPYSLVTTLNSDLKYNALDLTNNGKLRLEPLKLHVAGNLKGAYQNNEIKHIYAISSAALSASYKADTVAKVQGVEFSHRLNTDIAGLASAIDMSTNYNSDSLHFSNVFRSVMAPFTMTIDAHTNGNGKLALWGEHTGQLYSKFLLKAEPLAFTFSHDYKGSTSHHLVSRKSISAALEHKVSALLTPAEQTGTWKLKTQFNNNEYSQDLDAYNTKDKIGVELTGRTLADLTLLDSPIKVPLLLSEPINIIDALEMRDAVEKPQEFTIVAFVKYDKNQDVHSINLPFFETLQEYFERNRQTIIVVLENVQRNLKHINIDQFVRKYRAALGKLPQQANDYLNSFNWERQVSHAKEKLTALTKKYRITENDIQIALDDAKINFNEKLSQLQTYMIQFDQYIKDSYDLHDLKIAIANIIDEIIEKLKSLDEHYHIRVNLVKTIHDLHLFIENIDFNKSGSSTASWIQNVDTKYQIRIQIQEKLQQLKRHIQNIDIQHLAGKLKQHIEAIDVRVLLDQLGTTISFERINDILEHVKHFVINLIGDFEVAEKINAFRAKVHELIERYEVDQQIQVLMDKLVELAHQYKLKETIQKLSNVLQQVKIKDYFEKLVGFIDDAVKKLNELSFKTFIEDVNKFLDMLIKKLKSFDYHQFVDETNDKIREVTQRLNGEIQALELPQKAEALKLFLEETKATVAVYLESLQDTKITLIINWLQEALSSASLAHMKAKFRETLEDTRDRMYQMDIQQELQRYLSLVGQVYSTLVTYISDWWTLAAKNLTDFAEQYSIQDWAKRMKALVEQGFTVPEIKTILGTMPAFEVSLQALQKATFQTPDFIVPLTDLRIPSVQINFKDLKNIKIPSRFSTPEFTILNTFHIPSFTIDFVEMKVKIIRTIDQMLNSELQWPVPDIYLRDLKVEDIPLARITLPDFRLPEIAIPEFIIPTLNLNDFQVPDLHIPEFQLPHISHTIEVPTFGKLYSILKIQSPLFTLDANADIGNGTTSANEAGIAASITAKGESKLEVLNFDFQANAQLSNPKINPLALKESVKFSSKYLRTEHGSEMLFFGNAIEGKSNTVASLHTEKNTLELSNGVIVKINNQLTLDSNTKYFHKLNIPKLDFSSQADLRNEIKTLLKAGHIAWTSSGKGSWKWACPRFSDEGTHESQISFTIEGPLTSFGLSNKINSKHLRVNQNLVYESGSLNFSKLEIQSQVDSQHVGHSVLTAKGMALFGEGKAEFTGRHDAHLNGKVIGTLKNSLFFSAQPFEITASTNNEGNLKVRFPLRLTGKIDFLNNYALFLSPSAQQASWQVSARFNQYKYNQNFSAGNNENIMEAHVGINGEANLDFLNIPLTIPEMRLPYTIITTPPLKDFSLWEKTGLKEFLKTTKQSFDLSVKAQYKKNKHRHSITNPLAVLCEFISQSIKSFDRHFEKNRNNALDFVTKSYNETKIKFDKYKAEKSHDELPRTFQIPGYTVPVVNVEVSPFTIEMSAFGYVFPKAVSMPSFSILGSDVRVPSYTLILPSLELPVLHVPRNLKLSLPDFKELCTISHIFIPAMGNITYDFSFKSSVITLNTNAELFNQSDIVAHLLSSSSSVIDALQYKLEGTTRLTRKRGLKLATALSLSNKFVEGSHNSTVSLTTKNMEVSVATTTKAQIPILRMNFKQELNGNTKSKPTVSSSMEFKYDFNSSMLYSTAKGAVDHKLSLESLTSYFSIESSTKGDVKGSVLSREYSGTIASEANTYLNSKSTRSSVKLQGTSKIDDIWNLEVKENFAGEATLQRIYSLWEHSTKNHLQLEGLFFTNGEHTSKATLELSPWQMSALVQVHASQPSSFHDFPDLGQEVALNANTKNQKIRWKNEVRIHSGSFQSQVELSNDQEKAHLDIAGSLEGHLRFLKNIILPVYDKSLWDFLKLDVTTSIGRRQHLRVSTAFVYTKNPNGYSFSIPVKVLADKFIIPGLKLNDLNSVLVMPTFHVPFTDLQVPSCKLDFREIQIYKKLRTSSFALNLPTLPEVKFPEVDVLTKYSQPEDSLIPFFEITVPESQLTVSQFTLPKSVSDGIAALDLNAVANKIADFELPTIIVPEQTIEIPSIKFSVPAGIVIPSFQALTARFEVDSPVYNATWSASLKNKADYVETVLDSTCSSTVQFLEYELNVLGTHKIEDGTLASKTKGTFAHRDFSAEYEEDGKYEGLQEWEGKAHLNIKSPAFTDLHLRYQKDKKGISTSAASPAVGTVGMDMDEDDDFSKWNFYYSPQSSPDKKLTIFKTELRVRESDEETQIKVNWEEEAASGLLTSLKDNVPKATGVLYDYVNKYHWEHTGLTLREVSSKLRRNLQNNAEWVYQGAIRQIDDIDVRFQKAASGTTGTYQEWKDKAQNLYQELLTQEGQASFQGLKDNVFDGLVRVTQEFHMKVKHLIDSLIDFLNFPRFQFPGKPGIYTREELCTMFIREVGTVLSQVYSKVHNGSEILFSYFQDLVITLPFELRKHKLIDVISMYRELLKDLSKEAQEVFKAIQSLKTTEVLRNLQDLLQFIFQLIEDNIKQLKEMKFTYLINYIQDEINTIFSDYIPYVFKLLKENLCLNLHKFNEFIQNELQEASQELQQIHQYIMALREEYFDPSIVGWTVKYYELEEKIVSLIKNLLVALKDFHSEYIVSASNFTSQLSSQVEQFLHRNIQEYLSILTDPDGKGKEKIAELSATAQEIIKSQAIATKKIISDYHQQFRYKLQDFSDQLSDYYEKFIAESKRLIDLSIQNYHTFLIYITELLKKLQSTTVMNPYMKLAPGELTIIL
Method: Competition studies were carried out using fixed concentrations of cold LDL and radiolabeled LBP-1 and increasing amounts of cold recombinant LBP-1 (6-31 μM). The ACE assay samples and gel were prepared as described herein.
Competition studies using fixed concentrations of cold LDL and clone 26 derived radiolabeled LBP-2 and increasing concentrations of cold recombinant LBP-2/clone 26 and LBP-a/clone 45 were carried out.

[5] = test system: HDL; assay: Affinity coelectrophoresis (ACE) assay of LBP binding to HDL; set-up: species or system human; details: HDL cast in gel
Method: Analysis of the affinity and specificity of recombinant rabbit LBP-1, LBP-2 or LBP-3 binding to LDL was carried out using the principle of affinity electrophoresis (Lee and Lander, Proc. Natl. Acad. Sci. USA 88:2768-2772 (1991)). Melted agarose (1%; 65° C.) was prepared in 50 mM sodium MOPS, pH 7.0; 125 mM sodium acetate, 0.5% CHAPS. A teflon comb consisting of nine parallel bars (45×4×4 mm/3 mm spacing between bars) was placed onto GelBond film (FMC Bioproducts, Rockland, Me.) fitted to a plexiglass casting tray with the long axis of the bars parallel to the long axis of the casting tray. A teflon strip (66×1×1 mm) was placed on edge with the long axis parallel to the short axis of the casting tray, at a distance of 4 mm from the edge of the teflon comb. Melted agarose (>65° C.) was then poured to achieve a height of approximately 4 mm. […] LDL or HDL samples were prepared in gel buffer (50 mM sodium MOPS, pH 7.0, 125 mM sodium acetate) at twice the desired concentration. Samples were then mixed with an equal volume of melted agarose (in 50 mM MOPS, pH 7.0; 125 mM sodium acetate; 50° C.), pipetted into the appropriate rectangular wells and allowed to gel. The binding affinity and specificity of LBP-1 and LBP-3 was tested using several concentrations of LDL (540 to 14 nM) and HDL (2840177 nM). […]

[6] = target: T1, LDL; assay: Affinity coelectrophoresis (ACE) assay of LBP binding to LDL; details: LDL 540 to 14 nM cast in gel
Method: Analysis of the affinity and specificity of recombinant rabbit LBP-1, LBP-2 or LBP-3 binding to LDL was carried out using the principle of affinity electrophoresis (Lee and Lander, Proc. Natl. Acad. Sci. USA 88:2768-2772 (1991)). Melted agarose (1%; 65° C.) was prepared in 50 mM sodium MOPS, pH 7.0; 125 mM sodium acetate, 0.5% CHAPS. A teflon comb consisting of nine parallel bars (45×4×4 mm/3 mm spacing between bars) was placed onto GelBond film (FMC Bioproducts, Rockland, Me.) fitted to a plexiglass casting tray with the long axis of the bars parallel to the long axis of the casting tray. A teflon strip (66×1×1 mm) was placed on edge with the long axis parallel to the short axis of the casting tray, at a distance of 4 mm from the edge of the teflon comb. Melted agarose (>65° C.) was then poured to achieve a height of approximately 4 mm. […] LDL or HDL samples were prepared in gel buffer (50 mM sodium MOPS, pH 7.0, 125 mM sodium acetate) at twice the desired concentration. Samples were then mixed with an equal volume of melted agarose (in 50 mM MOPS, pH 7.0; 125 mM sodium acetate; 50° C.), pipetted into the appropriate rectangular wells and allowed to gel. The binding affinity and specificity of LBP-1 and LBP-3 was tested using several concentrations of LDL (540 to 14 nM) and HDL (2840177 nM). A constant amount (0.003 nM-0.016 nM) of ^125I-labeled LBP-1, LBP-2 or LBP-3 (suspended in 50 mM sodium MOPS, pH 7.0; 125 mM sodium acetate; 0.5% bromophenol blue; 6% (wt/vol) sucrose) was loaded into the slot. Gels were electrophoresed at 70 v/2 hr/20° C. At the end of the run, the gels were air dried and retardation profiles were visualized by exposure of X-ray films to the gels overnight at −70° C., with intensifying screens.
Rabbit and human LBP-2 contain a long stretch of acidic amino acids at the amino terminal (rabbit LBP-2 amino acid residues 338 through 365 and human LBP-2 amino acid residues 329 through 354). […]

[7] = test system: apo E knockout mice; assay: Aortic cholesterol content (cholesterol extraction method) in LBP-immunized apo E knockout mice; assay type: in vivo, mouse; details: for Arterial Wall Cholesterol: apo E mice
Method: as §2, §1, §3
A second analysis was done to measure aortic atherosclerosis by a cholesterol extraction method whereby cholesterol is determined as a unit weight of artery. This method may be more accurate in measuring lesion size than attempting to measure the thickness of many sections. Specifically, the weight of an artery was measured, then the cholesterol was extracted. Aortic cholesterol content was then measured by gas-liquid chromatography. The amount of cholesterol per unit weight of artery was then determined.

[8] = test system: LDL receptor negative knockout mice; assay: Lesions in LBP-immunized LDL receptor negative knockout mice; assay type: in vivo, mouse; details: P>0.05

Molecule	Accumulation of radiolabeled LDL in ballooned abdominal aorta versus nonimmune-ballooned rabbits [1]	Effect of immunization on body weight [2]	Effect of immunization on lesions / lesion area [3]	Lesion Area % Coverage [3] [%]	Inhibition by cold LBP of radiolabeled LBP binding to LDL [4]	Retardation of radiolabeled LBP migration by HDL [5]	Retardation of radiolabeled LBP migration through the gel by LDL [6]	Retardation of radiolabeled LBP migration through the gel by LDL ([6]; listed as clone 26)	Effect of immunization on arterial wall cholesterol content ([7]; apo E knockout mice, once outliers were deleted)	Arterial Wall Cholesterol ([7]; 26 weeks of age, control 6.33) [ug cholesterol/mg aorta]	Arterial Wall Cholesterol ([7]; outliers deleted) [ug cholesterol/mg aorta]	Effect of immunization on lesions [8]
recombinant human LBP-2: purified human recombinant LBP-2 used as immunogen with RIBI adjuvant (protein) EERVLEKEEEEDDDEDEDEEDDVSEGSEVPESDRPAGAQHHQLNGERGPQSAKERVKEWTPCGPHQGQDEGRGPAPGSGTRQVFSMAAMNKEGGTASVATGPDSPSPVPLPPGKPALPGADGTPFGCPPGRKEKPSDPVEWTVMDVVEYFTEAGFPEQATAFQEQEIDGKSLLLMQRTDVLTGLSIRLGPALKIYEHHIKVLQQGHFEDDDPDGFLG	lower accumulation											
LBP-2: rabbit recombinant LBP-2 clone 26 (6-His tag), contains the acidic region (protein, left off: small tags and cut ends, rabbit recombinant LBP-2 clone 26 (6-His tag), contains the acidic region) PPPPQQPQPPPEGGAARAGGPARPVSLREVVRYLGGSSGAGGRLTRGRVQGLLEEEAAARGRLERTRLGALALPRGDRPGRAPPAASARAARNKRAGEERVLEKEEEEEEEEDDEDDDDDVVSEGSEVPESDRPAGAQHHQLNGGERGPQTAKERAKEWSLCGPHPGQEEGRGPAAGSGTRQVFSMAALSKEGGSASSTTGPDSPSPVPLPPGKPALPGADGTPFGCPAGRKEKPADPVEWTVMDVVEYFTEAGFPEQATAFQEQEIDGKSLLLMQRTDVLTGLSIRLGPALKIYEHHIKVLQQGHFEDDDPEGFLG		did not have a significant effect	significant effect	6.01	inhibited binding	did not retard	concentration-dependent, saturable manner	concentration-dependent, saturable, manner	significant effect	3.28	1.83	
LBP-3: rabbit recombinant LDL binding protein LBP-3 (6-His tag), SEQ ID NO: 5 (protein, listed as Oryctolagus cuniculus, 6-His tag) MKNQDKKNGAAKQPNPKSSPGQPEAGAEGAQGRPGRPAPAREAEGASSQAPGRPEGAQAKTAQPGALCDVSEELSRQLEDILSTYCVDNNQGAPGEDGVQGEPPEPEDAEKSRAYVARNGEPEPGTPVVNGEKETSKAEPGTEEIRTSDEVGDRDHRRPQEKKKAKGLGKEITLLMQTLNTLSTPEEKLAALCKKYAELLEEHRNSQKQMKLLQKKQSQLVQEKDHLRGEHSKAILARSKLESLCRELQRHNRSLKEEGVQRAREEEEKRKEVTSHFQMTLNDIQLQMEQHNERNSKLRQENMELAERLKKLIEQYELREEHIDKVFKHKDLQQQLVDAKLQQAQEMLKEAEERHQREKDFLLKEAVESQRMCELMKQQETHLKQQLALYTEKFEEFQNTLSKSSEVFTTFKQEMEKMTKKIKKLEKETTMYRSRWESSNKALLEMAEEKTLRDKELEGLQVKIQRLEKLCRALQTERNDLNKRVQDLSAGGQGPVSDSGPERRPEPATTSKEQGVEGPGAQVPNSPRATDASCCAGAPSTEASGQTGPQEPTTATA		did not have a significant effect	did not have a significant effect	7.14	inhibited binding	did not retard	concentration-dependent, saturable manner			4.48		did not have a significant effect
